Measurements reported in US20200385434A1 (VOLUTION IMMUNO PHARMACEUTICALS, published 2020).

Biological target: T1, human complement component C5 (human, UniProt P01031 19-673; P01031 678-1676)
T1 construct: Purified human C5 was amine-coupled to a CM3 sensor chip for SPR; In the CH50 assay the C5 is the one present in pooled normal human serum; Native C5 is a disulphide-linked two-chain protein made from one precursor; also called human C5
Assay: SPR (BIAcore 2000, 25 C), human C5 amine-coupled to a CM3 chip, Coversin injected at 0-96 nM, global Langmuir fit

T1 sequence (P01031 19-673 limits assumed, chain 1 of 2): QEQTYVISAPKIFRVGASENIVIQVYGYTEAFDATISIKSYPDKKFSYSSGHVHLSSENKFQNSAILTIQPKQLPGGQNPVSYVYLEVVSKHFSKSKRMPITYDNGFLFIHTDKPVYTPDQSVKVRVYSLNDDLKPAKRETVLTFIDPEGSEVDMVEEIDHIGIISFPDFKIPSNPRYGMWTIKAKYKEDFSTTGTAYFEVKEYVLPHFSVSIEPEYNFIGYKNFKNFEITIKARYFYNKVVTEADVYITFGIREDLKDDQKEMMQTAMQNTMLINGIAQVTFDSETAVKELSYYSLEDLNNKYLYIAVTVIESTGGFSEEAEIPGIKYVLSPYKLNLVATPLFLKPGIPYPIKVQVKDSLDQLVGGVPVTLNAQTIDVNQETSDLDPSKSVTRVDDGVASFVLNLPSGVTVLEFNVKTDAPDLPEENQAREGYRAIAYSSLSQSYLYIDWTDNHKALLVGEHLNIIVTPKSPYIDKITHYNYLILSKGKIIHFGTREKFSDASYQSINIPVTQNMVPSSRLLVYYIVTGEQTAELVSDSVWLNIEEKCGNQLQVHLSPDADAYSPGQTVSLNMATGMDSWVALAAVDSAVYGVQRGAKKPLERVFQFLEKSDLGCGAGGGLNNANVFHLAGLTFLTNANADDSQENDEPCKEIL
T1 sequence (P01031 678-1676 limits assumed, chain 2 of 2): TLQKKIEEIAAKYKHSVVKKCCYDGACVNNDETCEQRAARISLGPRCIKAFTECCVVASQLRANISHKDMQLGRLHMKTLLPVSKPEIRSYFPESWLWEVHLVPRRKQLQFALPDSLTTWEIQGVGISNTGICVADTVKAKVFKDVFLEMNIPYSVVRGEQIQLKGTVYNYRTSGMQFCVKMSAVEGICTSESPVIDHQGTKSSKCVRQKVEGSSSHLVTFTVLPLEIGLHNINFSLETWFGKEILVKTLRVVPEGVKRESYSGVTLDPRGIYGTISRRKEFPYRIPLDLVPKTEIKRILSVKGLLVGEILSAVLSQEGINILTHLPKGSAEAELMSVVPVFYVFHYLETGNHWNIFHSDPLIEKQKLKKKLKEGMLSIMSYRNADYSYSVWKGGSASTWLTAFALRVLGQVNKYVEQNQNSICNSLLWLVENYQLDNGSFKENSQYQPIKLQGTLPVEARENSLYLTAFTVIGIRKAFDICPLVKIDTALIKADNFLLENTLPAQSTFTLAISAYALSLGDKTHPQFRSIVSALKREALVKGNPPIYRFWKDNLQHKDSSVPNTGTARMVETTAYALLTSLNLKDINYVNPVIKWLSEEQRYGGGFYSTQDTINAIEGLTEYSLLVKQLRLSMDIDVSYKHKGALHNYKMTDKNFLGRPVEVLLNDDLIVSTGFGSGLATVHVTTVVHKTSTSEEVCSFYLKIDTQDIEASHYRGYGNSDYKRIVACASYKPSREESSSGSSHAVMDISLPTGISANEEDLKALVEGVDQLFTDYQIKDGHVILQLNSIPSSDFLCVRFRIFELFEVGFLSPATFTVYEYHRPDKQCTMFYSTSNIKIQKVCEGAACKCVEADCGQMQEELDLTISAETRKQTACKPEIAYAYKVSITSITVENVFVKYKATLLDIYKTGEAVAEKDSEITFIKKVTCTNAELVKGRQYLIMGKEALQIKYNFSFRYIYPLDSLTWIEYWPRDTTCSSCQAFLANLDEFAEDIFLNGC

B1: wild type Coversin (Ornithodoros moubata) (other)
chain: DSESDCTGSEPVDAFQAFSEGKEAYVLVRSTDPKARDCLKGEPAGEKQDNTLPVMMTFKNGTDWASTDWTFTLDGAKVTATLGNLTQNREVVYDSQSHHCHVDKVEKEVPDYEMWMLDAGGLEVEVECCRQKLEELASGRNQMYPHLKDC
notes: also called Coversin wild type; unmodified Coversin polypeptide
Kd: 1.45 nM
